Measured values: the domain aggregation screens of Martell et al. (2025)

Assay: soluble fraction after stress (log2 fold change); higher = more stays soluble; pooled small domains, quantitative proteomics
Conditions: stress: pH 4
Procedure, shortened: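 Values are on a log2 scale, where higher means more of the domain stayed soluble after pH 4 stress. They are fold changes in the soluble amount of each domain from pooled custom libraries, measured by high-throughput quantitative proteomics. The fold change is taken to reflect aggregation propensity.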

Going from “HMNRGITVIVNNEEIKMKEKAQYVVVDIFDYIDFDLTVPKGSINITLNGENTPYTASIKDGDVIEVFW” to “HMNRIARRELMEQLFADNKITTQEQLQQLLRAEGVEVTQATISRDMRILNIVKVSDQNGNTYYKQMK”, the “soluble fraction (log2)” value rises from -1.56 to 0.0823.

Compared with “HMNRIEMTEPIIIKDLSRETGIPWVAIQKRLAQDGIMANINTTIEAEKAQLIAVDYGIELAVV”, “HMNRIGERIKRKRELRNLNLGELAEKVGISASALSQIEKSKSFPSVITLKSIAEQLRTTVGELIGEN” is higher in “soluble fraction (log2)” value: -0.54 for the first, 0.328 for the second.

“HMNRIKIYPTPGSKVLSIENINFSLIHDFKILDIFGREVKNFTVSSEKNTKMLVDTSKLSDGLYFIFFNTF” and “HMNRLEFLQGLKAELEGRVPHSIIQENLRYYDSYISDEAAKGQSEEDVVESLGGPRIIARTIVDAA” are within 0.2 log units of each other in “soluble fraction (log2)” value: -0.61 for the first, -0.52 for the second.

Going from “HMNRNEFMERLEYLLSDIPQEEKADAIAYYRDYLEEAGDDAGKAIQDFGSPERIAAMIRSELAG” to “HMNRQTGTVKWFNDAKGFGFITPESGPDLFVHFRSIQGAGFKSLQEGQRVTFVAVQGQKGMQADQVQA”, the “soluble fraction (log2)” value rises from -0.841 to -0.429.

First: HMNRTKQIYNELLFRLDQGVYPPESKFPSESQLADEFSVSKVTMNKIVSMLASSGRLSRGVRGAGTFVSSP
Second: HMNRYPIQTEVHAFNDDIIKEAINFEMSRGGQIFFVNNRIPQLYELENTIHRLVPDARVVIGHGQMP
The “soluble fraction (log2)” value of the first is higher: 0.319 for the first, -0.722 for the second.

Compared with “HMNSFKIYPNPSSREVVRFNQAQDVKVYDTLGKLILSAKNTSAIDTKSFNTGIYFIKTANGLTKKLIV”, “HMNSGFEVFREVVNQGSFIGAANALGISAPAVSKQIKLLENRLGLLLLYRTTRNVTLTDIGKQLFDTLDNS” is lower in “soluble fraction (log2)” value: -0.0877 for the first, -1.37 for the second.

Compared with “HMNSKKRQAILESLRSVTDHPTAEMIYNRLKPEYPDLSLGTVYRNLAMFLEEGQVISVGTVDGQERYDAR”, “HMNSKSFIFHIEDEEGIRLDVFLADNLPDVSRSYVQKLIDEEHVKVNGQSAKSRLKTVSGMEITVDVPAPK” is lower in “soluble fraction (log2)” value: 0.34 for the first, -0.543 for the second.

“HMNSLGYSDFVVDVQNERVASVVIEGLIINGERRDGTKFRTVLPTIGDQRLMDDLINHNVKVLARE” and “HMNSLTVPDITNRTLAEASQVLLDMGLTPIPDAVAKDGVGDDVVYAQSPPPNVGAREGDVVTITYNPA” are within 0.2 log units of each other in “soluble fraction (log2)” value: 0.226 for the first, 0.093 for the second.

First: HMNSNISYSEFLSQVEKGTINSVEITGNSIKGIYADGGEFITFSPGDPGLIDKLQRSDIEILATPPA
Second: HMNSPSKVIDISQLRKGMFVQLDLGWMSHPFAVGSFKVSTDEQIQTLRGLGLSEVRYIPEKSDPA
The “soluble fraction (log2)” value of the first is higher: -0.593 for the first, -0.896 for the second.

First: HMNSQSGKGGVGYILETKYGLNLPPKMREAMGYAAKGVSDHLHKELHPDEIFDLFKKTFENVGQPYS
Second: HMNSSLLGKRIKSLREDHDLTQKELSLMIGLTPKMISFYENNQRTPPLDILLKLAKIFEVSVDYLIGYA
The “soluble fraction (log2)” value of the first is higher: 0.197 for the first, -0.0642 for the second.

First: HMNSTRAPYLLDFEEDAAIREARRAGLVPRIARQPSGEPVGRVILQSHDYDYPMKRGDTILITISSG
Second: HMNSTSGIAGVGYWINQYRKKKGMSPVDKKSPLVRRVYDWVQEQYDEGRITIISDAELTRQTELAMEA
The “soluble fraction (log2)” value of the first is lower: -0.797 for the first, 0.0383 for the second.

First: HMNSVAASLREISIKVSGTEDADKVSRLQELSQMPKLDASGIAEANTLLEQLRAKYGDLGLSVDTARGRIV
Second: HMNSVSIAPEMLNWVIAHIQMNSLPKQIVEHLTAWISGQKEPTFNQIEKVSRATGIPLGYFFLEQPPKE
The “soluble fraction (log2)” value of the first is higher: 0.0674 for the first, -1.02 for the second.

Compared with “HMNSYKGELLVDDKNIRLDLYLFNQFNFFSRTKIKNYILKGNVLVNNNKTSPSYILKGSEKIYYDFSVS”, “HMNTEVDKVLLRSGEAYFGEVLLRNDELVMMKTQDGARFQFPVSEIKSIEKVSVADALRHINS” is higher in “soluble fraction (log2)” value: -0.251 for the first, 0.162 for the second.

Going from “HMNTGFPIILETSDAANLTVGAPIMYRGVEVGKIRNMELNSLGDRVLIHILIGHKYQHLVRQNSEFWFSS” to “HMNTKDRIKQLAAQRKITIAELERKLHIANGTIGKWDKQNPSIEPLKKLADYFGVTTDYLLGRT”, the “soluble fraction (log2)” value rises from -2.1 to -0.219.

First: HMNTKLKPLYLLDIFREMTDERHRMTVPELLEELQRRGITAERKGIYRDIDALIQYGADIKHTGTGYYLAR
Second: HMNTKLSYSDLIEKIEAGQVEKVELDAGGSSAIVKLKNDNIEKRVNVPSIDNLMENLQDNMKTGNISVTE
The “soluble fraction (log2)” value of the first is higher: 0.18 for the first, -0.202 for the second.

First: HMNTLLGLSNSFQDNKDLENANSISRRFISYRPRSEAELRIRLLKVFSHEIVLESVAQMYREGLLNDQRF
Second: HMNTLTKEDIQKAIDVIPIDFKSVVILNLVEGFSYKETAEILEIPIGTVMSRLHRGRKILQKLLWEYSSSK
The “soluble fraction (log2)” value of the first is lower: -1.65 for the first, -0.557 for the second.

“HMNTTTTKVVSVSSLNMRSGPSTSYNIIEVLTKDTQVEVISVEDGWAKIKYNSKTGYVSNQYLSDKK” and “HMNTVAKELATQATQAKKRAFLDAYAETGIIKRAAEIAGIERKSHYLWLEKDPEYVEAFKSAGEQ” are within 0.2 log units of each other in “soluble fraction (log2)” value: -0.0101 for the first, -0.0116 for the second.

Compared with “HMNTVSVGNLGLSVRAVNALKQAGIDTYDKLQELSWEELLLIPKLGQVTAAEIYRFITSYKKG”, “HMNVAETITLGKRLFNHALTILGKKQRNISRKQLKNFLNDLGLKDSKDLYESIGTGDKNPILMAQLLLG” is higher in “soluble fraction (log2)” value: -0.491 for the first, -0.0687 for the second.

Compared with “HMNVAVGNSKLVGVAGERAYFVNGVGAAARTLSLQVGDALPTGEKVRRIERDGVTMTGASGDVRLSVLP”, “HMNVDALIGTKGIVVQPIRPFAVGQVKVNGQVWSAVGKTPETDIEQGREVKVHAIEGVKLVVTPT” is lower in “soluble fraction (log2)” value: 0.138 for the first, -0.134 for the second.

First: HMNVDALVGMPARVTRAFVQGAGEVKLDNGETWTARLSAGVTDAEASVGQTVSVIAVRGAAVEVAPE
Second: HMNVDSLIGKKARVLEDIDNLNAKGQVSIDGMEWTARSEDGSEIKKDALVEVVAIEGVKAIVKQ
The “soluble fraction (log2)” value of the first is higher: 0.158 for the first, -0.127 for the second.

Compared with “HMNVEQQNQARENIKRLMEEQGLSQPKLSEKAGIAFGTLSRILRGKQDLTIQTAEKIADALGLSVYDLAE”, “HMNVKVSVDDIARPGLMASGRVTFADGNRGMWYVDEMGRLGIDPEVEGYQPSEADIQAFQRELQSVMES” is lower in “soluble fraction (log2)” value: 0.247 for the first, -0.927 for the second.

First: HMNVNSQQINDLEKSIQKFFDKDIKNYLNQNLSNDRMISKNEIDKIILLYYGSDKEPTLDEIKSIFN
Second: HMNVNTHKTLILNSTFQPLSLATPQRALALLFSKKINVLKESDIKLRSVGQSVAIPKVAVLTYFVKA
The “soluble fraction (log2)” value of the first is lower: -1.19 for the first, 0.132 for the second.

Going from “HMNVPFGYTIKDGLLVEQPDEKAILDNILTWKKGQMTVAEIAKKTGMETWKIYGILNYWRNK” to “HMNVRAYKVSKESELTVEEKLEAVRGYGVADLLYVIREFEENPGKYEPEVIKLIVQQLTDKGIM”, the “soluble fraction (log2)” value falls from -0.438 to -0.94.

Going from “HMNVRRSRTHEKVTTYQGYDIFINKEPNQRGMFTSAPMRGDNEYSNLRGEGKSKQDAVNMTKEKIDEIAA” to “HMNVSVSITKELQVYINDERISSSALESTLKSKLAGIENPTIILRAEEGVPIEKAVNVMDIANRNRYKIVL”, the “soluble fraction (log2)” value falls from 0.229 to -0.969.

Going from “HMNVYAGTMINVVGLQVEDAASRLRGLFYSVKIVEEESQEPDGKVLRQNIAEGTKDLEAWTLVELTVSKYV” to “HMNVYEVKFGDTLDEIIKTYLFDIPVKKSILRQAVILANPHAFRRNNPHWMYSDRQLKLPELQDIRRAIF”, the “soluble fraction (log2)” value falls from -0.448 to -0.74.

First: HMNYGDVIEGQIMHVDRDELLVDIGSKSEGIIPAREFSTLTDEERAALSVGDHVLVFVVQAENQEGQAV
Second: HMNYIEWKNTFKKYLYLLPIKEEKETLAYFDEQYNKLNPKDLDNVENIFSDPIDKAAFVVAFYLEMEDEIK
The “soluble fraction (log2)” value of the first is higher: 0.0111 for the first, -0.802 for the second.

“HMNYIGADAAKNMAAADAQVDTANASFSGANLGEKNGLSYYQVDFTANGREYHYAIDAMTGTVIESSSAAS” and “HMNYNEKGEYTRTLTSGSETAVMTYRNFGETLDVALFKNGVQTDSLRLIKSEPGVLYRQSNGQFEKI” are within 0.2 log units of each other in “soluble fraction (log2)” value: -0.0522 for the first, -0.0181 for the second.

“HMNYSIVNVGFNNKSLFLRSAPGYSASRLLLPFATERAFVRETLSNGWSRVIVRGTEGYLPTEYVAD” and “HMNYSKQRETILKVLRSTRSHPSVNWIYENVKKEIPDVGLATVYRNLKQLEAAGEIMRIQGDFPEERWDGF” are within 0.2 log units of each other in “soluble fraction (log2)” value: -0.553 for the first, -0.587 for the second.

“HMNYTALLNNFSENMKKRRVELSLSQKELASIVGVSVRTIQNYENKKTIPTSAVMESISIALDMGLEKMID” and “HMNYTQAQIDRANAVSLEDFLRTQGETLIKSGREYRWKEHDSLTVRGNKWFRHSQSKGGYPIDFVMEFTA” are within 0.2 log units of each other in “soluble fraction (log2)” value: 0.04 for the first, -0.0561 for the second.

Going from “HMNYYYKDNQYWYVGFRYDERLVKEIKRFVGAGYNPENKEWYIPFTLPTVAPLQKWLHDNGFVEGMNYYP” to “HMPAAFALLTDREREIAALIAQRLTNREIAEKLYLSEGSVKQYVNQLYAKLGIEGDTRTKRRRLAEQAK”, the “soluble fraction (log2)” value rises from -1.31 to 0.12.

First: HMPAAKARTWQEATHAFQRDFLLETLRRARFNAADAADQLGLARPALYTTAKRLGLDLVAERQRWEAEAH
Second: HMPAAPVFLQKDLLDAGLIGQADSAARREKLGKILGIGYGNGKVMLQRLNSFGIERDAFEQAVQE
The “soluble fraction (log2)” value of the first is higher: 0.043 for the first, -0.195 for the second.

Compared with “HMPAASDALAGELAQIARLDIAKLLAGDLSEADWSRITSATVQLSERHPDASDELTALVERIDTAYSARAT”, “HMPAEGWEASGDTWRYRQKDGSYITNAWVQDTDGKWYYFDESSLMVRNQTTSDGYYVGEDGVWTET” is lower in “soluble fraction (log2)” value: -1.32 for the first, -1.83 for the second.

Going from “HMPAELGVVVRNANLRSGPGTKYAIVGSAPAGTTVRIAGTNKAGDWYHLSSGRWIAAFLVDRN” to “HMPAERLSMRKIYEILRLKYGHGLSNREVALSVSVSRSTVADYLLRAQAAGLSWPLPDGLDETGLEQRLFP”, the “soluble fraction (log2)” value falls from 0.34 to -0.572.

First: HMPAFGALTLRQRDLVELIAQGLDNSQIAARLGLAEKTVRNHITMIFNKLEMENRSQVIVRARESGFGAVR
Second: HMPAKIIKKSFVYNPIHRDTEYLAQFLQGEGQVSASGDKLVYYGTVEDISRIKSVLQSVDTPS
The “soluble fraction (log2)” value of the first is higher: -0.228 for the first, -0.434 for the second.
